The term stoichiometry N denotes the number of molecules, sites or subunits per partner or assembly.

This passage reports stoichiometry N results from article PMC12232321.

For assay [1], the target named is LOV2-C250A single domain of Phot1. The assay can be described thus: crystal structure; LOV2-C250A crystallized in the dark (FMNox).
Assay [2] deals with LOV1-C57M-SL-LOV2-C250A fusion protein (short linker) (UniProt Q8LPD9). The assay can be described thus: crystal structure; fusion protein pre-irradiated with blue light and reoxidised (FMN^·-Met/FMNox); 20% PEG 3350, 0.1 M BIS-TRIS pH 6.5, 0.1 M ammonium sulfate, 5 mg/mL.

In assay [1], “LOV2-C250A single domain of Phot1 (domain or fragment)” registered a stoichiometry N of 2.
As to “LOV1-C57M-SL-LOV2-C250A fusion protein (short linker) (from UniProt Q8LPD9 17-125)”, the stoichiometry N in assay [2] is 2.
